In patent US20110159513A1:
Read-outs that look alike come from different tables or passages of the source.

Columns and labels:
Assay in all cases: cell-based or functional assay
ErbB1 on NCI-ADRr cells [1] = biological target: ErbB1 on NCI-ADRr cells (UniProt P00533)
ErbB1 on NCI-ADRr cells [2] = biological target: ErbB1 on NCI-ADRr cells (UniProt P00533); remark: listed apart in the source
[3] = biological target: ErbB3 on tumour cells (NCI-ADRr, OVCAR8, OVCAR8-HER2) (UniProt P21860)

heparin-binding epidermal growth factor, sequence (Q99075 63-148 limits assumed): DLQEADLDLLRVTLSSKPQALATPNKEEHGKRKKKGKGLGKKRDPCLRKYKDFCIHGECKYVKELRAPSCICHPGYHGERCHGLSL
betacellulin, sequence (P35070 32-111 limits assumed): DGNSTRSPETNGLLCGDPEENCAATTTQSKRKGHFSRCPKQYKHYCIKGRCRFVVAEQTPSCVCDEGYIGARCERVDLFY

Molecule	pErbB1 EC50 [nM], NCI-ADRr (ErbB1 on NCI-ADRr cells [1]) [nM]	pErbB1 % stimulation at 5 min relative to maximum (ErbB1 on NCI-ADRr cells [2]) [%]	further results
heparin-binding epidermal growth factor (from UniProt Q99075 63-148) (ligand)	21		pErbB1 % stimulation at 5 min relative to maximum (ErbB1 on NCI-ADRr cells [1]): 87%
amphiregulin (ligand, UniProt P15514 101-198, looked up) SVRVEQVVKPPQNKTESENTSDKPKRKKKGGKNGKNRRNRKKKNPCNAEFQNFCIHGECKYIEHLEAVTCKCQQEYFGERCGEKSMKTHSMIDSSLSK		95	pErbB1 EC50 [nM], NCI-ADRr (ErbB1 on NCI-ADRr cells [2]): 37 nM
Epigen (ligand, UniProt Q6UW88 23-104, looked up) AAVTVTPPITAQQGNWTVNKTEADNIEGPIALKFSHLCLEDHNSYCINGACAFHHELEKAICRCFTGYTGERCEHLTLTSYA		12	
heregulin HRG1-β (ligand, UniProt Q02297-6 177-241, looked up) SHLVKCAEKEKTFCVNGGECFMVKDLSNPSRYLCKCPNEFTGDRCQNYVMASFYKHLGIEFMEAE			pErbB3 % stimulation at 5 min relative to maximum [3]: 100%; pErbB3 EC50 [nM], NCI-ADRr [3]: 9.9 nM

The next lines start with results.

pErbB1 EC50 [nM], NCI-ADRr (ErbB1 on NCI-ADRr cells [1]) [nM]	pErbB1 % stimulation at 5 min relative to maximum (ErbB1 on NCI-ADRr cells [2]) [%]	Molecule	further results
30		transforming growth factor alpha (from UniProt P01135 40-89) (ligand)	
5.7		betacellulin (from UniProt P35070 32-111) (ligand)	
